Read-outs that look alike come from different tables or passages of the source.
Assays:
Experiment in all cases: SEC
[1] = molecular target: T1, bacteriophage P22 coat protein (bacteriophage P22, UniProt P26747 1-430)
[2] = molecular target: T1, bacteriophage P22 coat protein; remark: listed apart in the source
[3] = molecular target: T1, bacteriophage P22 coat protein; remark: listed apart in the source

T1 sequence (P26747 whole entry): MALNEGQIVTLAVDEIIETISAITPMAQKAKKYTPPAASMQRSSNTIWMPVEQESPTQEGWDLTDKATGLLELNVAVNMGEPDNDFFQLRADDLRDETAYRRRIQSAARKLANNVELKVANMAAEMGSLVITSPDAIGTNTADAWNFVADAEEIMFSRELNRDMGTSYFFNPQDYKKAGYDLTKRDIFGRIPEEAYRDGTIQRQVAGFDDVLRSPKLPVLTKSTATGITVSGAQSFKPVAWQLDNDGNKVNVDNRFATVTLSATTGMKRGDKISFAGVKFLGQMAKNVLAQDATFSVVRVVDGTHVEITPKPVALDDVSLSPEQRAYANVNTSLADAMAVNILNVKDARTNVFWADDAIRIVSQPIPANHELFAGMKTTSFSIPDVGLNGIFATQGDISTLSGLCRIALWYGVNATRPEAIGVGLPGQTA

B1: bacteriophage P22 scaffolding protein (natural protein, UniProt P26748 1-303, looked up)
chain: MEPTTEIQATEDLTLSGDHAAASADSLVVDNANDNAGQEEGFEIVLKDDETAPKQDPAKNAEFARRRIERKRQRELEQQMEAVKRGELPESLRVNPDLPPQPDINAYLSEEGLAKYDYDNSRALAAFNAANTEWLMKAQDARSNAVAEQGRKTQEFTQQSAQYVEAARKHYDAAEKLNIPDYQEKEDAFMQLVPPAVGADIMRLFPEKSAALMYHLGANPEKARQLLAMDGQSALIELTRLSERLTLKPRGKQISSAPPADQPITGDVSAANKDAIRKQMDAAASKGDVETYRKLKAKLKGIR
- stoichiometry N [1]: ~360 scaffolding protein sites per PC
- midpoint of the binding fit (K's, input S/C ratio) [2]: 0.88 input S/C molar ratio
- stoichiometry N [2]: 294 ± 33 scaffolding proteins per PC
- 1/KS (dissociation constant of scaffolding protein for PC), Snum 300 [3]: 0.77 ± 0.7 µM
- 1/KS (dissociation constant of scaffolding protein for PC), Snum 360 [3]: 1.29 ± 0.95 µM
- 1/KS (dissociation constant of scaffolding protein for PC), Snum 420 [3]: 1.88 ± 1.25 µM

Reference: article PMC3351694 (Virology, 2012)
